Reference: paper PMC11341715

Legend:
[1] = molecular target: biotinylated FZD6 cysteine-rich domain (CRD) (human); test: BLI; Octet Red 96e; biotinylated FZD3 or FZD6 CRD immobilised, Nb8 or Wnt5a in solution; 10 mM HEPES pH 7.5, 150 mM NaCl, 0.02% Tween 20, 0.005% GDN; 1:1 binding model
[2] = molecular target: biotinylated multidomain FZD3 (C-terminally truncated, in detergent) (human) (UniProt Q9NPG1); test: BLI; Octet Red 96e; biotinylated multidomain FZD3 or FZD6 in detergent immobilised, nanobody or DEP in solution; 10 mM HEPES pH 7.5, 150 mM NaCl, 0.02% Tween 20, 0.005% GDN; 1:1 binding model
[3] = molecular target: biotinylated FZD3 cysteine-rich domain (CRD) (human) (UniProt Q9NPG1); test: BLI; Octet Red 96e; biotinylated FZD3 or FZD6 CRD immobilised, Nb8 or Wnt5a in solution; 10 mM HEPES pH 7.5, 150 mM NaCl, 0.02% Tween 20, 0.005% GDN; 1:1 binding model

biotinylated FZD6 cysteine-rich domain (CRD) (human), sequence (O60353 22-139): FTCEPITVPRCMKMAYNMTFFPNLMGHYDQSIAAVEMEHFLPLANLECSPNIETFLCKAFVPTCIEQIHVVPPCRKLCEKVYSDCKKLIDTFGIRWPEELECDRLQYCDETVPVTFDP

B1: Nb8 (VHH)
VHH: QVQLVESGGGLVQAGGSLRLSCAASGSISSINAMGWYRQAPGKQRELVAAITSGGSTNYADSVKGRFTISRDNAKNTVYLQMNSLKPGDTAVYYCNLLYYIDYVEYDYWGQGTQVTVSS
- Kd [1]: 1200 nM

B2: DVL2 DEP domain (domain or fragment)
chain: PESGLEVRDRMWLKITIPNAFLGSDVVDWLYHHVEGFPERREARKYASGLLKAGLIRHTVNKITFSEQCYYVFGD
- Kd [2]: 460 nM

B3: human Wnt5a (ligand)
chain: IIGAQPLCSQLAGLSQGQKKLCHLYQDHMQYIGEGAKTGIKECQYQFRHRRWNCSTVDNTSVFGRVMQIGSRETAFTYAVSAAGVVNAMSRACREGELSTCGCSRAARPKDLPRDWLWGGCGDNIDYGYRFAKEFVDARERERIHAKGSYESARILMNLHNNEAGRRTVYNLADVACKCHGVSGSCSLKTCWLQLADFRKVGDALKEKYDSAAAMRLNSRGKLVQVNSRFNSPTTQDLVYIDPSPDYCVRNESTGSLGTQGRLCNKTSEGMDGCELMCCGRGYDQFKTVQTERCHCKFHWCCYVKCKKCTEIVDQFVCK
- Kd [3]: 83 nM
